Laboratory results: paper PMC2151542

Molecular target: MthK channel (Methanobacterium thermoautotrophicum) (UniProt O27564)
Assay: single-channel recording in planar lipid bilayers

Substance: charybdotoxin (from UniProt P13487 23-59) (peptide)
- Kd: 1 nM
